In article PMC11741606 (2025):
Numbering of substitutions follows the chain as printed.

Legend:
Assay in all cases: SPR
[1] = target: T1, dAPN-Q746K-D750E ectodomain, hFc-tagged (dog (Canis lupus familiaris), UniProt P79143 33-975, Q746K | D750E)
T1 sequence: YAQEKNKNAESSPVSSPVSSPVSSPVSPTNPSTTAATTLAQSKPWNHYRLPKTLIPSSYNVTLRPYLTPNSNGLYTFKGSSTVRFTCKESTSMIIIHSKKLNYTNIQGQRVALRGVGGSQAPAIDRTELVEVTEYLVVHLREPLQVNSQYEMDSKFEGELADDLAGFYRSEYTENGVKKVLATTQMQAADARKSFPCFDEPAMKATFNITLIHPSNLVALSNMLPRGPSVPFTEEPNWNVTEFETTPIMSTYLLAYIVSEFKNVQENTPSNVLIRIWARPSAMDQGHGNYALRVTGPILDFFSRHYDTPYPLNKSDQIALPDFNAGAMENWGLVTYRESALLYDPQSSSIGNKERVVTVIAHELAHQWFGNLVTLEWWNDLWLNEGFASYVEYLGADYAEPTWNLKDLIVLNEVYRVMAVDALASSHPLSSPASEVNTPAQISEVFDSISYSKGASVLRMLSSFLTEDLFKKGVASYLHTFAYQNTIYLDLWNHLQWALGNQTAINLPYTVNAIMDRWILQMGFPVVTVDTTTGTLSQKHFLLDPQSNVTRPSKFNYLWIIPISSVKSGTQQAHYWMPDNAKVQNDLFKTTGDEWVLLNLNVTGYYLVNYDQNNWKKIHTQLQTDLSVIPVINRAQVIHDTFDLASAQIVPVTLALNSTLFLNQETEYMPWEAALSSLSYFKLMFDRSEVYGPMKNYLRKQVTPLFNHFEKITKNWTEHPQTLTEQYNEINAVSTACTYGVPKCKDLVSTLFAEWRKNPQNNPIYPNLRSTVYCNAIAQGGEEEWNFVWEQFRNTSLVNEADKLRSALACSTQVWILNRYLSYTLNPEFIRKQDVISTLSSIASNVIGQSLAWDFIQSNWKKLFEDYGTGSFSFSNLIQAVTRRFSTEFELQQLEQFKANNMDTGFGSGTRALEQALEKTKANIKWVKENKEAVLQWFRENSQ

[2] = target: T2, dAPN-Y797H ectodomain, hFc-tagged (dog (Canis lupus familiaris), UniProt P79143 33-975, Y797H)
T2 sequence: T1 sequence with K714Q, E718D, Y765H

[3] = target: T3, dAPN-H751R ectodomain, hFc-tagged (dog (Canis lupus familiaris), UniProt P79143 33-975, H751R)
T3 sequence: T1 sequence with K714Q, E718D, H719R

B1: TGEV RBD (receptor-binding domain of the transmissible gastroenteritis coronavirus spike protein) (domain or fragment)
chain: TANLNNGFYPVSSSEVGLVNKSVVLLPSFYTHTIVNITIDLGMKRSGYGQPIASTLSNITLPMQDNNTDVYCIRSDQFSVYVHSTCKSSLWDNIFKRNCTDVLDATAVIKTGTCPFSFDKLNNYLTFNKFCLSLSPVGANCKFDVAARTRTNEQVVRSLYVIYEEGDNIVGVPSD
**Q.** Which Kd [1] does the source give for B1 here?
**A.** 1540 nM

**Q.** What about the Kd [2] of the same binder?
**A.** 23.8 nM

**Q.** What about the Kd [3] of the same binder?
**A.** 241 nM
